The record followed here is article PMC3401432.

Where two headings read alike, the source gives them in different places.

Experiment [1] concerns the target CryB, GAL4 binding domain fusion (pGBK-T7-cryB) (Rhodobacter sphaeroides). The experiment in a line: two-hybrid.
Experiment [2] addresses His-CryB, purified from E. coli (Rhodobacter sphaeroides). Briefly: MST.
Experiment [3] has as its target CryB, GAL4 binding domain fusion (pGBK-T7-cryB) (Rhodobacter sphaeroides). Briefly: two-hybrid. The source holds these as a separate data set.

On to “SCHIC domain of AppA, GAL4 activation domain fusion (pGAD-T7) (domain or fragment)”, for which the β-galactosidase activity, percent of the SV40 T antigen + p53 control in experiment [1] amounted to 8%.

B1: MBP-AppA (full-length AppA tagged with maltose-binding protein) (natural protein)
chain: MQHDLEADVTMTGSDLVSCCYRSLAAPDLTLRDLLDIVETSQAHNARAQLTGALFYSQGVFFQWLEGRPAAVAEVMTHIQRDRRHSNVEILAEEPIAKRRFAGWHMQLSCSEADMRSLGLAESRQIVTVGRSLVADNTNIFSFDRIAAVRRFLSDVCAARTLAPDTPVEADTFALYALTEAQAGRSGRAKAVARLSDLLSTDPLGRLTEVEELLRAHAPTAADFARLFEACAERLTRALAEDRISRMQVTLAYSALQMALRRIHHLPDPQKSVGAVLVAGVPGHKPILEAALAAEMLRAVGWSTSVVHPESVAALAARLKTSRTSTLVVAPSLLEGTEQEADTLRFVSALRARTDLPGLSILVGGRLAQLPPSKLKDSGADAGFAHLALLPAALARVACPANADCCSMRACRMPASQCCDKRINPEFLLANVMPSVLTRISSRQDRRRSA
With B1, the Kd in experiment [2] amounted to 595 nM.

B2: AppA full length, GAL4 activation domain fusion (pGAD-T7-appA) (natural protein)
chain: MQHDLEADVTMTGSDLVSCCYRSLAAPDLTLRDLLDIVETSQAHNARAQLTGALFYSQGVFFQWLEGRPAAVAEVMTHIQRDRRHSNVEILAEEPIAKRRFAGWHMQLSCSEADMRSLGLAESRQIVTVGRSLVADNTNIFSFDRIAAVRRFLSDVCAARTLAPDTPVEADTFALYALTEAQAGRSGRAKAVARLSDLLSTDPLGRLTEVEELLRAHAPTAADFARLFEACAERLTRALAEDRISRMQVTLAYSALQMALRRIHHLPDPQKSVGAVLVAGVPGHKPILEAALAAEMLRAVGWSTSVVHPESVAALAARLKTSRTSTLVVAPSLLEGTEQEADTLRFVSALRARTDLPGLSILVGGRLAQLPPSKLKDSGADAGFAHLALLPAALARVACPANADCCSMRACRMPASQCCDKRINPEFLLANVMPSVLTRISSRQDRRRSA
With B2, the β-galactosidase activity, percent of the SV40 T antigen + p53 control in experiment [3] worked out at 40%.
